Measured values reported in the nanobody polyreactivity screen of Harvey et al. (2022).

Assay: yeast display, Sf9 membrane polyspecificity reagent, FACS + sequencing; frameworks hold sequencing errors
Summary of the method: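 Galactose-induced (36–48 hours) yeast carrying a synthetic nanobody display library were exposed to 10% biotinylated, detergent-solubilized Sf9 membrane reagent at 4 °C for 1 hour. FACS followed streptavidin microbead enrichment, using low and high (top ~1%) gates for expression (anti-HA) and reagent binding (streptavidin). Colony PCR, MiSeq 2 × 250 sequencing and CDR-length filtering followed. Labels for polyreactivity reflect the gate of origin.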

Row | Sequence | polyreactivity (PSR sort gate)
1 | QVQLVESGGGLVQAGGSLRVSCAASGFIIIGYVMGWYRQSPGKERELVAAITSSGGSTYYADSVKGRFTISRDNAKNTVYLQMNSLKPEDTAVYYWNADIYISPLVQVSKGYDYWGQGTQVTVSS | low polyreactivity
2 | QVQLVESGGGLVQAGGSLRVSCAASGFSFKYYAMGWYRQAPGKERELVAAITKRGGSTYYADSVKGRFTISRDNAKNTVYLQLNSLIPEDTAVYYCAADGRAYERYDYRSDYWGQGSQVTVSS | high polyreactivity
3 | QVQLVESGGGLVQAGGSLRVSCAASGFTFHKYAMGWYRQAPGKDRELVAVISQSASSTYYADSVKGRFTISRDNAKNTVYFQMNGLKPEDTAVYYCNAKYYRYNRRNYWGQGTQVTVSS | high polyreactivity
4 | QVQLVESGGGLVQAGGSLRVSCAASGFTFRGYAMGWYRQAPGKERELVAAIRRGVITNYADSVKGRFTISRDNAKNTVYLQMHSLKPEDTAVYYCAAGNITPYRYYHGYYQSIYDYWGQGTQVTVSS | low polyreactivity
5 | QVQLVESGGGLVQAGGSLRVSCAASGFTFRGYAMGWYRQAPGKERELVAAIRRGVITNYADSVKGRFTISRDNAKNTVYLQMNSLKPEDTAVYYCAAGNITPYRYYHGYYQSIYDYWGQGTQVTVSS | low polyreactivity
6 | QVQLVESGGGLVQAGGSLRVSCAASGGTFGNNDMGWYRQAPGKEWELFAAIRAAGTTYYADSVKGRFTISRDNAKNTVYLQMNSLKPEDTAVYYCIADTTGYWSYGFQYYGEDYWGQGTQVTVSS | low polyreactivity
7 | QVQLVESGGGLVQAGGSLRVSCAASGLTFDTNAMGWYRQARGKERELVAAITDSGDSTYYADSVKGRFTISRDNAKNTVYLQMNRLKPEDSAVYYCAARRSNLAWGRRRMYYWGQGTQVTVSS | high polyreactivity
8 | QVQLVESGGGLVQAGGSLRVSCAASGLTFSVYTRGWYRQAPGKERELVAAITTSGGRTYYADSVKGRFTISRDNAKNTVYLQMNSLKPEDTAVYYCAAVRTGDTTGTMGYWGQGTQVTVSS | high polyreactivity
9 | QVQLVESGGGLVQAGGSLRVSCAASGNSFTGYVMGWYRQAPGKERELVAAIRSGGSTYYADSVKGRFRISRDNAKNTVYLQMTSLKPEDTAVYYCNARYRYRLRGYDYWGQGTQVTVSS | high polyreactivity
10 | QVQLVESGGGLVQAGGSLRVSCAASGRIFGYNAMGWSRQAPVKERELDAAIRGGGSTYYADSVKGRFTISRDNAKHSVYLQMYSLKPEDTAVYYCAATSYTYVLSPYRGDYWGQGTQVTVSS | high polyreactivity
11 | QVQLVESGGGLVQAGGSLRVSCAASGRTFARYAKGWYRQAPGKERELVAVISRTGSTYYADSVKGRFTISRDNAKNTVYLQMNSLKPEDTAVYYCATVYYYLAYGWSYSDMDYWGQGTQVTVSS | high polyreactivity
12 | QVQLVESGGGLVQAGGSLRVSCAASGRTFDSYAMGWYRQAPGKEREFVAAISYSGTSTYYADSVKGRFTISRDNAKNTVYLQMNSLKPEDTAVYYCNAARETRPRDYYWGQGTQVTVSS | low polyreactivity
13 | QVQLVESGGGLVQAGGSLRVSCAASGSIFKNNPMGWYRQAPGKERELVDANRYSGGRTYYAHSVKGRFTISRDHAKNTVYIQMNSLKPEVTAVYDCAAGSIQYRPTYTGDYWGQGSQVTVSS | high polyreactivity
14 | QVQLVESGGGLVQAGGSLRVSCAASGSIFRFNVMGWYRQAPGKERELVAAITRGDSTNYADSVKGRFTISRDNAKNTVYLQMNSLKPEDTAVYYCAAGYYYYLRDHDYWGQGTQVTVSS | low polyreactivity
15 | QVQLVESGGGLVQAGGSLRVSCAASGSIFYYAMGWYRQAPGKERELVASIRSGGSTKFADSVKGRFTISRDNAKNTVYLQMNSLKPEDTAVYYCAARGVIRYTYKSTPYDYWGQGTQVTVSS | high polyreactivity
16 | QVQLVESGGGLVQAGGSLRVSCAASGSTFCSNAKGWYRQAPGKERELVAAISSGGSTNYADSVKGRFTISRDNAKNTVYLQMYSLKPEDTAVYYCAADRSPEYYWGQGTQVTVSS | low polyreactivity
17 | QVQLVESGGGLVQAGGSLRVSCAASGSTFGTYGMGWYRPAPGKERELVADITSGGSTYYADSVKGRFTISRDNAKNTVYLQMNSLTPEDTAVYYCAASWFVWSTAVPYDYWGQGTQVTVSS | low polyreactivity
18 | QVQLVESGGGLVQAGGSLRVSCAASGSTFGYYAMGWYREAPGKEREFVAAINYGDGNTYYADSVKGRFTISRDNAKNTVYLQMNRLKPEDTAVYYCATYYWAPTGAHGGYGYWVQGTQVTVSS | low polyreactivity
19 | QVQLVESGGGLVQAGGSLRVSCAASGSTFSAYAMGWYRPAPGKERELVAAISASGGSTYYADSVKGRFTISRDNAKNTVSLQMNSLKPEDTAVYYCNADRWKYELDYWGQGTQVTVSS | high polyreactivity
20 | QVQLVESGGGLVQAGGSLRVSCAASGSTFVGNAMGWYRQEPGKERELVADITSGGSTNYADSVKGRFTISRDNAKNTVYLQMKSLKPEDTAVYYFAAVYLCSQRREFWGQGTQVTVSS | low polyreactivity
21 | QVQLVESGGGLVQAGGSLRVSCAPSGIIFGGNVMGWYRQAPGKERELVAGITSTGGRTYYADSVKGRFTISRDNAKNTVYLQMNSLKPEDTAVYYCAAVSTLVRGNFNRIRYGYWGHGTQVTVSS | high polyreactivity
22 | QVQLVESGGGLVQAGGSLRVSCASSGSIFLDNAMEWYRQAPGKERELVAAISYGDGSTYYADSVKGRITISRDNAKNTVYLQMNRLKPEDTAVYYCAAERYTIPPIYDYWGQGTQVTVSS | low polyreactivity

Row | Sequence | polyreactivity (PSR sort gate)
23 | QVQLVESGGGLVQAGGSLRVSCGASGRTFLFYAMGWYRQAPGKERELVASITGRGGRTSYADSEKGRFTISRDNAKNTVYLQKNSLKPEDTAVYYCAARNPYTSTYYDWGQGTQETVSS | high polyreactivity
24 | QVQLVESGGGLVQAGGSLSIICAASGFTFRYYAMGWYREAPGKERELVAAISKSGTSTYYADSVKGRFTISRDNAKNTVYLQMNSLKPEDTAVYYCAARRGRRYYYWGQGTQVTVSS | high polyreactivity
25 | QVQLVESGGGLVQAGGSLSISCAASGSIFLAYDMGWYRPAPGKARELVAAITAGTGSTYYADSVKGRFTISRDNAKNTVYLQMTSLKPDDTAVYYCAAELWGGTYGEYEYWGQGTQVTVSS | low polyreactivity
26 | QVQLVESGGGLVQAGGSLSLICAASGFIFLYYAMGWYRQAPGKERELVADISRGADTKYADSVKGRFTISRDNAKNTVYLQMNSLKPEDTAVYYCATDITTFWFPYPGVELGYWGQGTQVTVSS | low polyreactivity
27 | QVQLVESGGGLVQAGGSLSLICAASRRSFYHYTMGWSRQAPGKERELVAAMTSGGSTYYADSVKGRFTISRDNAKNTVYLQMNSLKPEDTAVYYCARVRPLYDYSRYDYWGQRTQVTVSS | high polyreactivity
28 | QVQLVESGGGLVQAGGSLSLSCAASGFIFYRYAMGWYRQAPGKERELVAAITSGGSTKYADSVKGRFTISRDNAKNTVYLQMNSLKPEYTAVYYCAADPFDWFSYYYWGQGTQVTVSS | low polyreactivity
29 | QVQLVESGGGLVQAGGSLSLSCAASGFILDFNSLGWYRQAPGKERELVAAISISGVSTYYADSVKGRFTISRDNAKNTVYLQMHSLKPEDTAVYYGAAAQVAAVYWRPGGYDYWGQGTQVTVSS | low polyreactivity
30 | QVQLVESGGGLVQAGGSLSLSCAASGFISASNVMGWYRHAPGKERELVAAINWSGDNTYYADSVKWRFTISRDTAKNTVYLLMNSLKAEDTAVYYCNDDVYSYATPEMDYWGQGTQVTVSS | low polyreactivity
31 | QVQLVESGGGLVQAGGSLSLSCAASGFTFSWNAMGWYSQAPGKERELVATITRSGSTYYADSVKGRFTISRDNSKNTVYLQMNSLKPEDTAVYYCAVVSWYRYSRYVNDYWGQGTQVTVSS | high polyreactivity
32 | QVQLVESGGGLVQAGGSLSLSCAASGGIFQVNSMGWYRQATGKEREVLAAISWSVGRTYYADSVKGRFTISRDNAKNTVYLQMNSLKPEDTAVYYCARYGKRGYYYWGQGTQVTVSS | low polyreactivity
33 | QVQLVESGGGLVQAGGSLSLSCAASGITFGLYAMGWYRQATGKERELVAAITSGDRTYYADSVKGRFTISRDNAKNTVYLQMISLTPEDTAVNYCNAEAWWVYYYYGTYLAGSYYWGQGTQVTVSS | high polyreactivity
34 | QVQLVESGGGLVQAGGSLSLSCAASGITFIHNAMGLYIQAPGKERELVAAITPSDGSTYYADSVKGRFTISRDNAKNTVFLQMNSLKPEDTAVYYCAARGRHSGYYSVPYYYWGQGTQVTVSS | low polyreactivity
35 | QVQLVESGGGLVQAGGSLSLSCAASGITFSYYAMGWYRQAPGNERELVASINFSGGSTSYADSVKGRFTISRDNAKITVYFQMNSLKPEDPAVYYCAAQIWSKDEKHDYWGQGTKVTVSS | high polyreactivity
36 | QVQLVESGGGLVQAGGSLSLSCAASGLIFYYYAMGWYRQAPGKERELVAAITRGGRTYYADSVKGRFTISRDNAKNTVYLQMNSLKPEDTAVYYCAAVTRVYGKTMGYWGQGTQVTVSS | high polyreactivity
37 | QVQLVESGGGLVQAGGSLSLSCAASGLTFSAYAMGWYRQAPGKERELVAAISSGVSTNYADSVKGRFTISRDNAKNSVYLQMNSLKPEDTAVYYCKAEYWGAYEYWGQGTQVTVSS | high polyreactivity
38 | QVQLVESGGGLVQAGGSLSLSCAASGLTSSENAMGWYRQAHGKERELVAAINVSGGSTYYADSVKGRFTISRDNAKNTVYLQMNSLKPEDTAVYYCAADNPYAYARSSWYEYNYWGQGTQVTVSS | high polyreactivity
39 | QVQLVESGGGLVQAGGSLSLSCAASGRIFAGYAMGWYRQAPGKERELVAVISSRGGRTYYADSVKGRFTISRDNAKNTVYLQMNSLKPEDTAVYYCNRVFSYQYKRDYWGQGTQVTVSS | high polyreactivity
40 | QVQLVESGGGLVQAGGSLSLSCAASGRIFTQYAMGWSRQAPGKERELVTAINASDGSTYADSVKGRFTISRDNAKNTVYLQMNCLIPEDTAVYYCNVTGGPYDFTRWSEFDHWGQGTQVTVSS | low polyreactivity
41 | QVQLVESGGGLVQAGGSLSLSCAASGRILYSYAMGWYRQAPGKERELVASISLSGGRTYADSVKGRFTISRDNAKNTVYLQMNSLKPEDTAVYYCNARIRTSRYLWPFDYWGQGTQVTVSS | high polyreactivity
42 | QVQLVESGGGLVQAGGSLSLSCAASGRTFGLNVMGWYRQAPGKERELVATISGVGSTNYADSVKWRFTISRDNAKNTVYLQMNSLKPEDTAVYYCAKDPHVGRWWDLYSPYYSWGQGTQVTVSS | low polyreactivity
43 | QVQLVESGGGLVQAGGSLSLSCAASGRTFIRNAMGWYRQAPGKERELVAAINSGGITNYADSVKGRFTISRDNAKNTVYLQMNSLKPEDTAVYYCNARQVLFGLYLRAYPFEYWGQGTQVTVSS | low polyreactivity
